Publication PMC5389708 (Nucleic Acids Research, 2017)

Experiments:
[1] = target: chimpanzee APOBEC3C (chimpanzee); assay: SEC
[2] = target: chimpanzee APOBEC3C (chimpanzee); assay: cross-linking
[3] = target: chimpanzee APOBEC3C S188I (chimpanzee); assay: cross-linking
cross-linking = target: the molecule itself; assay: cross-linking
SEC = target: the molecule itself; assay: SEC

Row | Molecule | stoichiometry N (cross-linking) | also measured
1 | chimpanzee APOBEC3C (enzyme) |  | stoichiometry N [1]: 2; stoichiometry N [2]: 2
2 | chimpanzee APOBEC3C S188I (enzyme) |  | stoichiometry N [3]: 2
3 | gorilla APOBEC3C (enzyme) MNPQIRNPMKAMYPGTFYFQFKNLWEANDRNETWLCFTVEGIKRRSVVSWKTGVFRNQVDSETHCHAERCFLSWFCDDILSPNTNYQVTWYTSWSPCPECAGEVAEFLARHSNVKLTIFTARLYYFQYPCYQVGLRSLSQEGVAVEIMDYEDFKYCWENFVYNDNEPFKPWKGLKTNFRLLKRRLRESLQ | 2 | 
4 | human APOBEC3C N115K (enzyme) MNPQIRNPMKAMYPGTFYFQFKNLWEANDRNETWLCFTVEGIKRRSVVSWKTGVFRNQVDSETHCHAERCFLSWFCDDILSPNTKYQVTWYTSWSPCPDCAGEVAEFLARHSNVKLTIFTARLYYFQYPCYQEGLRSLSQEGVAVEIMDYEDFKYCWENFVYNDNEPFKPWKGLKTNFRLLKRRLRESLQ |  | stoichiometry N (SEC): 2
5 | human APOBEC3C S188I/N115K (enzyme) MNPQIRNPMKAMYPGTFYFQFKNLWEANDRNETWLCFTVEGIKRRSVVSWKTGVFRNQVDSETHCHAERCFLSWFCDDILSPNTKYQVTWYTSWSPCPDCAGEVAEFLARHSNVKLTIFTARLYYFQYPCYQEGLRSLSQEGVAVEIMDYEDFKYCWENFVYNDNEPFKPWKGLKTNFRLLKRRLREILQ | 2 | 
6 | gorilla APOBEC3C S188I (enzyme) MNPQIRNPMKAMYPGTFYFQFKNLWEANDRNETWLCFTVEGIKRRSVVSWKTGVFRNQVDSETHCHAERCFLSWFCDDILSPNTNYQVTWYTSWSPCPECAGEVAEFLARHSNVKLTIFTARLYYFQYPCYQVGLRSLSQEGVAVEIMDYEDFKYCWENFVYNDNEPFKPWKGLKTNFRLLKRRLREILQ | 2 | 
7 | human APOBEC3C S188I (enzyme) MNPQIRNPMKAMYPGTFYFQFKNLWEANDRNETWLCFTVEGIKRRSVVSWKTGVFRNQVDSETHCHAERCFLSWFCDDILSPNTKYQVTWYTSWSPCPDCAGEVAEFLARHSNVNLTIFTARLYYFQYPCYQEGLRSLSQEGVAVEIMDYEDFKYCWENFVYNDNEPFKPWKGLKTNFRLLKRRLREILQ | 2 | 
8 | gorilla APOBEC3C K115N (enzyme) MNPQIRNPMKAMYPGTFYFQFKNLWEANDRNETWLCFTVEGIKRRSVVSWKTGVFRNQVDSETHCHAERCFLSWFCDDILSPNTNYQVTWYTSWSPCPECAGEVAEFLARHSNVNLTIFTARLYYFQYPCYQVGLRSLSQEGVAVEIMDYEDFKYCWENFVYNDNEPFKPWKGLKTNFRLLKRRLRESLQ | 2 | 
